We go through 14 sequences from a protein production outcome set (Wang et al. 2014).

This data set in a line: label from the status in PepcDB records.
Consider “MTRVLYCGDTSLETAAGYLAGLMTSWQWEFDYIPSHVGLDVGELLAKQDLVILSDYPAERMTAQAIDQLVTMVKAGCGLVMLGGWESYHGLGGNWDQTLLAEVLPVDIKSADDRINFDQPTLAIPAAINSVSHPILQNLPWEDRPPTIGGLNRIAAKAKAQTLLMARVWRPTFSLEHGKTTWEHADHHPLLVVGEAGTGRVAAFASDVAPHWVGGLVDWGDERVTSQAPGAGAIEVGNLYSQFFRQMLEWVAKSTR”, for which the protein production result is reported as “not failed”. As for “MELTLALVIFVICYLLIMAETFNRAVVACLGGVLMLFVGIYPLDAAFLQYIDWHTITLLLSMMILVSITSQSGFFEYMAIRLAQKVDGRPIPLLIVVAGITAIGSAFLNNVTMVLLIVPIVLTLTNLLKLNAVPFLLTLVMASNIGGTATLIGDPPNLMIGQAVAHLSFNDFLLHLGPIVAVIFFVVLIGLILYYRRQLSVTAEDRSRLRGVDPTSYLKNRPLLIKSMTVLTLTTIGFTIQPFLPVELTSIAMAGALLLMLITQNEQDMEGVFRSVEWVTLFFFIGLFMLVGGIKEVGIIDEIAKAIIYYTEGDIPKTSLFILWGSGILSGFVDNIPFVAAMIPVILEFQEYGVGELDPLWWSLALGACLGGNATVIGATANVIVAGLAVQAKQSFSYLEFLKVGAPVALVSFLLCTVYLYIRYLIYF”, the protein production entry is listed as “failed”. For “MLIATFFFTSHFSRAKQPMWYNGLLDLSVWQVIAVTLAMTHVTIVGVTVYLHRYSAHRSLELNAGLKHFFRFWLWLTTAQNTREWTAIHRKHHAKCETVDDPHSPVVKGLSTVLRKGAELYREEAQNQDTLRIYGKNCPEDWIERNLYSRYKMLGIVLMAVIDLALFGAIGITVWAIQMMWIPFWAAGVVNGLGHAVGYRNFECRDAATNLVPWGIVIGGEELHNNHHTYPNSAKLSVKPWEFDMGWAWIKLFSFLRLAKVQRVAPIAHRVEGKGHIDMDTAMAILNNRFQIMAQYRKLVIAPLVTQELAKADESVRHQFRRAKRLLSRETSLLDDKHHLRIQTMLEHSHALKVIYEKRLALQQIWVKTSSNGHDMLSAMKEWIHEAEASGIQSLREFADQLKTYSLRPVHA”, the protein production result is on record as “failed”. Consider “SGCIQSITCKARIRRENIVVYDVCATIDQCPTRIEETSPIVLRYKTPYFKASARVVMPPIPRHETWVVGWIQACNQMEFFNTYSDLGMSSWELPDLREGRVKAISDSDGVSYPWYGNTTETVTLVGPTNKISRFSVSMNDNFYPSVTWAVPVSDSNVPLLTRIKRDQSFTTWLVAMNTTTKEKIILQTIKWRMRVDIEVDPLQLLGQRARLVGRTQQEQPRILSRMEPIPPNALVKPNANDAQVLMWRPKRGPPLVVIPPK”, for which the protein production entry is “not failed”. Regarding “MSLKDMIDSIEQFAQTQADFPVYDCLGERRTYGQLKRDSDSIAAFIDSLALLAKSPVLVFGAQTYDMLATFVALTKSGHAYIPVDVHSAPERILAIIEIAKPSLIIAIEEFPLTIEGISLVSLSEIESAKLAEMPYERTHSVKGDDNYYIIFTSGTTGQPKGVQISHDNLLSFTNWMIEDAAFDVPKQPQMLAQPPYSFDLSVMYWAPTLALGGTLFALPKELVADFKQLFTTIAQLPVGIWTSTPSFADMAMLSDDFCQAKMPALTHFYFDGEELTVSTARKLFERFPSAKIINAYGPTEATVALSAIEITREMVDNYTRLPIGYPKPDSPTYIIDEDGKELSSGEQGEIIVTGPAVSKGYLNNPEKTAEAFFTFKGQPAYHTGDIGSLTEDNILLYGGRLDFQIKYAGYRIELEDVSQQLNQSPMVASAVAVPRYNKEHKVQNLLAYIVVKDGVKERFDRELELTKAIKASVKDHMMSYMMPSKFLYRDSLPLTPNGKIDIKTLINEVNNREGHHHHHH”, the protein production entry was “not failed”. As for “MVVNKRLILILLFILNTAKSDELSWKGNDFTLYARQMPLAEVLHLLSENYDTAITISPLITATFSGKIPPGPPVDILNNLAAQYDLLTWFDGSMLYVYPASLLKHQVITFNILSTGRFIHYLRSQNILSSPGCEVKEITGTKAVEVSGVPSCLTRISQLASVLDNALIKRKDSAVSVSIYTLKYATAMDTQYQYRDQSVVVPGVVSVLREMSKTSVPTSSTNNGSPATQALPMFAADPRQNAVIVRDYAANMAGYRKLITELDQRQQMIEISVKIIDVNAGDINQLGIDWGTAVSLGGKKIAFNTGLNDGGASGFSTVISDTSNFMVRLNALEKSSQAYVLSQPSVVTLNNIQAVLDKNITFYTKLQGEKVAKLESITTGSLLRVTPRLLNDNGTQKIMLNLNIQDGQQSDTQSETDPLPEVQNSEIASQATLLAGQSLLLGGFKQGKQIHSQNKIPLLGDIPVVGHLFRNDTTQVHSVIRLFLIKASVVNNGISHGLEHHHHHH”, the protein production entry is listed as “not failed”.

Consider “MANEGGQDAGDEYFADLDYIEVAEQLKEGYESEVDHSDPDAEEDNGGPDAEDDDDFRPNYHYQRKIKRSSRSGSTQNSSTQSSELDSQERAVINFNPNADLDET”, for which the protein production result is reported as “failed”.

Take “MEKRQFMKMKEKLKRACFEFAVSNRYLYNLAKRILDSSPKLQKIKEFLIPKEFLIPAANLSNVFEPETSFQNSGRFFKKIKTCFNGGLPPENLDQDLAIINQRWNVNNEGYQIFSHRKILGPFLVRGRRLVHGEVRRYVDPIFHLQREFNASVVRILNRTTEDLRVLSSKNDAIEGKLNTVEEKISGTVRKDEFKEFKDKIMINHDKLQTDFYELKNSLTKNLEELSSTVESIKAKIDTAEEKISGTDIHTSDYYFLFEEKFRGSRELVKARLRRYIPYFKGCRRVLDIGCGRGEFLELCKEEGIESIGVDINEDMIKFCEGKFNVVKSDAIEYLKSLPDKYLDGVMISHFVEHLDPERLFELLSLCYSKMKYSSYIVIESPNPTSLYSLINFYIDPTHKKPVHPETLKFILEYLGFRDVKIEFFEECEELTKLAKIDSNTVSEEVIRVINENIEKLNRILFGPQDYAIIAKK”: the protein production result is recorded as “failed”. In the case of “MFSLSFPSSSSALLPSLVAFDSSRRLSLQPKKLNRLQSHLFSPQHLSFSQSNVSRYRAFCVSSSSPPEGTVSVVDFHEKDWSFLESMEIDSTEHTQKIERIIKAGELSESSRVLVSISSETFVDRLVESSPSQLLLIVHDSLFTLACIKEKYDKVKCWQGEMIYVPEKWSPLDAVFLYFLPALPFDLDELFKTLSQRCSSGARVVISHPQGRLGLEQQRKEFSDVVVSDLPDESTLSNVAEKHSFELTQFVDEQGLYLAVLKSSKQ”, the protein production result is on record as “failed”. Consider “MYLTCRFEESKSAEKAVVALEESTSGEPKTPTESHEKLRKVRSDQGSSTTSSNQENIGSSSVSFRNQVLQSTVTNQKQDSPIPVESNREKAASKEVEAGSQSTNEGIAGQSSSTEKPKEEESAKQRWSRSQREAALMKFRLKRKDRCFDKKHLKQIQDQTDSMEMYKNGLQVRYQSRKKLAEQRPRVKGQFVRTVNSDASTKS”, for which the protein production entry is “failed”. With “MLLGVIPVLAILLLGFNIHLLVKERRYKKSWISFSMLGLNGLLFVAFTFFLLVYMAGFVTITTIPPFVYWFLIMLGFIIEGMSLYKKYVPGQMTAAAIHLFVVLPTIFSIGIVLLLVAIIELIVAMMNGTGGHPVPRNKQTTTP”, the protein production result is listed as “failed”. As to “MASKSVHADITLLLDMEGVIREATLSPTMAAESVDGWLGRRWSDIAGAEGGDKVRRMVEDARRSGISAFRQINQPFPSGVEIPIEFTTMLLGDRTGMIAVGKNMQAVTELHSRLIAAQQAMERDYWRLRELETRYRLVFDAAADAVMIVSAGDMRIVEANRAAVNAISRVERGNDDLAGRDFLAEVAAADRDAVRDMLAQVRQRGTALSVLVHLGRYDRAWMLRGSLMSSERRQVFLLHFTPVTTTPAIDDVDDDAVLRGLIDRIPDGFVALDSEGVVRHANQAFLDLVQIGSKPAAVGRSLGVWMGRPGADLSSLLTLLRRYKTVRLFQTTIRGELGTETEVEVSAVDGEDDQYIGVLMRNVARRLDAADDHDALRQALGPISKQLGRSSLRKLVKNAVSIVEQHYVKEALLRSKGNRTATAELLGLSRQSLYAKLNCYGFDDKGVVASAADGAEGASDDAED”, the protein production result was “failed”. Turning to “TYHRLALQRENASLNPVGQMVAVNGYKISVFVKGQGSQTLVFLSGAGTASPILDFKDVYDGFSKEYKIVVVERADYGYSEDTSKSRDVSVILSETRQSLAKSQVSGPYIILSHSMASLETLLWQENYPSEVKAVVCLDWAFPESYFQLKRHPQMLRLARWESQLGLLRLLPRQLYMPNENLSDSDRRLYQEIAYRQLLSQAMLNESLCAKENDKKVNSTSIKSQMPVLLMVSNGKGTGFGQEQWRHYATSFAKGQKNMEVTYYDSPHYFYHYQTKEMIRSIEEFVQE”, the protein production entry is on record as “failed”.

For “MPLFKFAIDVQYRSNVRDPRGETIERVLREEKGLPVKKLRLGKSIHLEVEAENKEKAYEIVKKACEELLVNPVVEEYEVREL”, the protein production entry is given as “not failed”.
